Experimental data from the supplement of paper PMC7877785.
± gives the uncertainty stated by the source.

Assay: self-splicing fitness, log relative to wild type (ln ratio); higher = more splicing; Tetrahymena group I intron in knt gene, E. coli kanamycin selection, DiMSum; sequences stand for … in CUCUCU…GGAGGGAAAAGUUAUCAGGCAUGCACCUGGUAGCUAGUCUUUAAACCAAUAGAUUGCAUCGGUUUAAAAGGCAAGACCGUCAAAUUGCGGGAAAGGGGUCAACAGCCGUUCAGUACCAAGUCUCAGGGGAAACUUUGAGAUGGCCUUGCAAAGGGUAUGGUAAUAAGCUGACGGACAUGGUCCUAACCACGCAGCCAAGUCCUAAGUCAACAGAUCUUCUGUUGAUAUGGAUGCAGUUCACAGACUAAAUGUCGGUCGGGGAAGAUGUAUUCUUCUCAUAAGAUAUAGUCGGACCUCUCCUUAAUGGGAGCUAGCGGAUGAAGUGAUGCAACACUGGAGCCGCUGGGAACUAAUUUGUAUGCGAAAGUAUAUUGAUUAGUUUUGGAGUACUCGUGGUCG
Outline: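 DiMSum derived fitness as the error-weighted combination of fold changes across replicates, kanamycin versus no kanamycin, normalised to wild type. E. coli BL21(DE3) held the library, which randomised all eight P1ex-region intron nucleotides within the knt kanamycin-resistance gene on pET-22b(+). Six replicate transformations grew overnight at 37°C or 30°C on LB agar with or without 25 μg/mL kanamycin, also containing 100 μg/mL carbenicillin, 50 μM IPTG and 0.2% rhamnose, and pooled colonies were amplicon-sequenced on an Illumina HiSeq 2500.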

| Sequence | self-splicing fitness (ln) (30 °C) | self-splicing fitness (ln) (37 °C) |
| --- | --- | --- |
| AAGUAGCAAUAUUACGGUGU | -2.2 ± 0.09 | -1.23 ± 0.099 |
| AAGUAGCAAUAUUACGUAUU | -1.97 ± 0.11 | -1.07 ± 0.14 |
| AAGUAGCAAUAUUACGUCGA | -1.34 ± 0.1 | -1.07 ± 0.11 |
| AAGUAGCAAUAUUACGUCUC | -1.59 ± 0.12 | -0.405 ± 0.14 |
| AAGUAGCAAUAUUACGUCUG | -0.515 ± 0.086 | 0.168 ± 0.11 |
| AAGUAGCAAUAUUACGUGGA | -3.83 ± 0.26 | -2.14 ± 0.16 |
| AAUAAGCAAUAUUACGAAGG | -3.39 ± 0.48 | -2.04 ± 0.39 |
| AAUAAGCAAUAUUACGACCU | 0.104 ± 0.12 | 0.726 ± 0.16 |
| AAUAAGCAAUAUUACGACUG | -0.872 ± 0.088 | -1.18 ± 0.11 |
| AAUAAGCAAUAUUACGAUCU | 0.041 ± 0.069 | 0.493 ± 0.087 |
| AAUAAGCAAUAUUACGCAAC | -2.79 ± 0.3 | -0.975 ± 0.2 |
| AAUAAGCAAUAUUACGCACA | -0.471 ± 0.099 | 0.253 ± 0.13 |
| AAUAAGCAAUAUUACGCAUC | -2.56 ± 0.12 | -1.66 ± 0.15 |
| AAUAAGCAAUAUUACGCGGG | -2.62 ± 0.13 | -1.35 ± 0.14 |
| AAUAAGCAAUAUUACGCUCG | -0.686 ± 0.14 | 0.0576 ± 0.19 |
| AAUAAGCAAUAUUACGGAAG | -3.52 ± 0.28 | -1.86 ± 0.39 |
| AAUAAGCAAUAUUACGGAAU | -2.69 ± 0.15 | -0.645 ± 0.11 |
| AAUAAGCAAUAUUACGGACG | -0.851 ± 0.15 | -0.397 ± 0.15 |
| AAUAAGCAAUAUUACGGCGC | 0.251 ± 0.12 | -0.478 ± 0.13 |
| AAUAAGCAAUAUUACGGCUA | 0.107 ± 0.1 | 0.0369 ± 0.13 |
| AAUAAGCAAUAUUACGGUGA | -1.18 ± 0.093 | -0.256 ± 0.11 |
| AAUAAGCAAUAUUACGUACC | -0.867 ± 0.14 | -0.89 ± 0.15 |
| AAUAAGCAAUAUUACGUAGA | -1.51 ± 0.11 | -0.998 ± 0.13 |
| AAUAAGCAAUAUUACGUCCC | -0.502 ± 0.17 | 0.393 ± 0.26 |

| Sequence | self-splicing fitness (ln) (30 °C) | self-splicing fitness (ln) (37 °C) |
| --- | --- | --- |
| AAUAAGCAAUAUUACGUUAC | -3.62 ± 0.18 | -1.39 ± 0.14 |
| AAUCAGCAAUAUUACGAGAC | -3.64 ± 0.27 | -0.528 ± 0.12 |
| AAUCAGCAAUAUUACGAGGA | -2.13 ± 0.12 | -1.23 ± 0.11 |
| AAUCAGCAAUAUUACGAUGU | 0.218 ± 0.053 | 0.543 ± 0.08 |
| AAUCAGCAAUAUUACGCAAC | -1.32 ± 0.11 | -0.666 ± 0.13 |
| AAUCAGCAAUAUUACGCAGC | -1.36 ± 0.15 | -0.207 ± 0.14 |
| AAUCAGCAAUAUUACGCAUG | -0.409 ± 0.038 | 0.349 ± 0.058 |
| AAUCAGCAAUAUUACGCGCG | 0.0814 ± 0.079 | -0.098 ± 0.1 |
| AAUCAGCAAUAUUACGCGGG | -1.33 ± 0.095 | -1.42 ± 0.099 |
| AAUCAGCAAUAUUACGCGGU | -2.35 ± 0.12 | -1.14 ± 0.14 |
| AAUCAGCAAUAUUACGCUCA | 0.294 ± 0.074 | 0.323 ± 0.1 |
| AAUCAGCAAUAUUACGCUCU | -0.00647 ± 0.077 | 0.0812 ± 0.097 |
| AAUCAGCAAUAUUACGCUGA | -2.61 ± 0.17 | -1.76 ± 0.24 |
| AAUCAGCAAUAUUACGCUUC | -1.77 ± 0.069 | -0.398 ± 0.088 |
| AAUCAGCAAUAUUACGGACG | -0.448 ± 0.068 | 0.478 ± 0.12 |
| AAUCAGCAAUAUUACGGCUA | -0.0319 ± 0.079 | 0.406 ± 0.094 |
| AAUCAGCAAUAUUACGUACU | 0.336 ± 0.084 | 0.692 ± 0.11 |
| AAUCAGCAAUAUUACGUAUC | -0.504 ± 0.044 | 0.251 ± 0.068 |
| AAUCAGCAAUAUUACGUCAG | -1.86 ± 0.12 | -0.81 ± 0.12 |
| AAUCAGCAAUAUUACGUCUG | -1.16 ± 0.049 | -0.895 ± 0.065 |
| AAUCAGCAAUAUUACGUGGC | -3.57 ± 0.17 | -1.83 ± 0.12 |
| AAUCAGCAAUAUUACGUUGC | -3.97 ± 0.23 | -3.16 ± 0.22 |
| AAUGAGCAAUAUUACGACAC | -2.71 ± 0.31 | – |
| AAUGAGCAAUAUUACGACGA | -2.44 ± 0.34 | -3.22 ± 0.47 |

| Sequence | self-splicing fitness (ln) (30 °C) | self-splicing fitness (ln) (37 °C) |
| --- | --- | --- |
| AAUGAGCAAUAUUACGACGU | -1.13 ± 0.11 | -0.443 ± 0.12 |
| AAUGAGCAAUAUUACGAGGC | – | -3.11 ± 0.4 |
| AAUGAGCAAUAUUACGAUGU | -2.94 ± 0.15 | -1.97 ± 0.17 |
| AAUGAGCAAUAUUACGCAGU | -2.51 ± 0.2 | -3.29 ± 0.31 |
| AAUGAGCAAUAUUACGCCGA | -2.34 ± 0.3 | -1.75 ± 0.43 |
| AAUGAGCAAUAUUACGCUUA | -1.94 ± 0.14 | -0.919 ± 0.12 |
| AAUGAGCAAUAUUACGCUUG | -3.09 ± 0.17 | -2.11 ± 0.18 |
| AAUGAGCAAUAUUACGGAAC | -3.52 ± 0.47 | – |
| AAUGAGCAAUAUUACGGGCG | – | -3.07 ± 0.47 |
| AAUGAGCAAUAUUACGGUCC | -2.47 ± 0.45 | – |
| AAUGAGCAAUAUUACGUCAA | -2.4 ± 0.21 | -2.59 ± 0.46 |
| AAUGAGCAAUAUUACGUCAC | -2.93 ± 0.41 | -1.92 ± 0.29 |
| AAUGAGCAAUAUUACGUCCU | -1.45 ± 0.13 | -0.218 ± 0.12 |
| AAUGAGCAAUAUUACGUCUC | -2.96 ± 0.23 | -2.19 ± 0.24 |
| AAUGAGCAAUAUUACGUGGA | -3.35 ± 0.32 | -3.04 ± 0.35 |
| AAUGAGCAAUAUUACGUGGG | -4.39 ± 0.36 | -2.87 ± 0.21 |
| AAUGAGCAAUAUUACGUUCC | -2.71 ± 0.17 | -1.43 ± 0.2 |
| AAUUAGCAAUAUUACGACCG | -1.2 ± 0.13 | 0.0816 ± 0.21 |
| AAUUAGCAAUAUUACGAUAG | -3.1 ± 0.26 | -1.75 ± 0.18 |
| AAUUAGCAAUAUUACGCAAU | -2.4 ± 0.13 | -1.74 ± 0.17 |
| AAUUAGCAAUAUUACGCCGA | -1.34 ± 0.26 | -0.981 ± 0.21 |
| AAUUAGCAAUAUUACGCCUC | -1.22 ± 0.18 | -2.47 ± 0.25 |
| AAUUAGCAAUAUUACGCUGU | -1.44 ± 0.16 | -1.26 ± 0.2 |
| AAUUAGCAAUAUUACGGAAC | -2.77 ± 0.13 | -2.18 ± 0.2 |

| Sequence | self-splicing fitness (ln) (30 °C) | self-splicing fitness (ln) (37 °C) |
| --- | --- | --- |
| AAUUAGCAAUAUUACGGAUU | -2.2 ± 0.12 | -1.3 ± 0.14 |
| AAUUAGCAAUAUUACGGCAC | -1.11 ± 0.16 | -0.154 ± 0.21 |
| AAUUAGCAAUAUUACGGUAA | -2.72 ± 0.2 | -0.655 ± 0.22 |
| AAUUAGCAAUAUUACGGUAU | -1.29 ± 0.097 | -0.598 ± 0.11 |
| AAUUAGCAAUAUUACGGUUG | -2.53 ± 0.13 | -0.897 ± 0.13 |
| AAUUAGCAAUAUUACGUACU | -0.151 ± 0.089 | 0.263 ± 0.13 |
| AAUUAGCAAUAUUACGUAUG | -1.04 ± 0.12 | -1.13 ± 0.16 |
| AAUUAGCAAUAUUACGUCUU | 0.444 ± 0.091 | 0.46 ± 0.098 |
| AAUUAGCAAUAUUACGUGAG | -1.71 ± 0.077 | -0.654 ± 0.1 |
| AAUUAGCAAUAUUACGUGAU | -1.87 ± 0.13 | -1.56 ± 0.16 |
| AAUUAGCAAUAUUACGUUAU | -2.88 ± 0.18 | -1.11 ± 0.12 |
| AAUUAGCAAUAUUACGUUCC | -3 ± 0.22 | -1.32 ± 0.21 |
| AAUUAGCAAUAUUACGUUUC | -2.89 ± 0.23 | -1.57 ± 0.23 |
| ACAAAGCAAUAUUACGAAGG | -2.52 ± 0.087 | -1.75 ± 0.12 |
| ACAAAGCAAUAUUACGAAGU | -2.04 ± 0.12 | -2.06 ± 0.18 |
| ACAAAGCAAUAUUACGACAG | -1.34 ± 0.066 | -0.8 ± 0.084 |
| ACAAAGCAAUAUUACGAGGU | -4.39 ± 0.2 | -2.78 ± 0.18 |
| ACAAAGCAAUAUUACGAUCG | -0.241 ± 0.074 | 0.193 ± 0.095 |
| ACAAAGCAAUAUUACGCACG | -1.96 ± 0.12 | -0.724 ± 0.1 |
| ACAAAGCAAUAUUACGCCAA | -2.34 ± 0.24 | -1.86 ± 0.18 |
| ACAAAGCAAUAUUACGCCGC | -3.43 ± 0.31 | -1.52 ± 0.28 |
| ACAAAGCAAUAUUACGCGUG | -1.5 ± 0.043 | -0.274 ± 0.057 |
| ACAAAGCAAUAUUACGGACC | -1.02 ± 0.1 | -1.5 ± 0.15 |
| ACAAAGCAAUAUUACGGACU | -0.0658 ± 0.051 | 0.338 ± 0.079 |
